Measurements taken from article PMC2063677.

Tests used:
IMP KH3 = target: T1, IMP KH3 (Drosophila melanogaster, UniProt Q8IR99 301-396); experiment: filter binding
T1 sequence: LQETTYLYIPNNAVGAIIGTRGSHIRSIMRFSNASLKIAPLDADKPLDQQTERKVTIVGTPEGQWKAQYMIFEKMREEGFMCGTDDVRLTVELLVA

IMP full length = target: T2, IMP full length (Drosophila melanogaster, UniProt Q8IR99 1-573); experiment: filter binding
T2 sequence: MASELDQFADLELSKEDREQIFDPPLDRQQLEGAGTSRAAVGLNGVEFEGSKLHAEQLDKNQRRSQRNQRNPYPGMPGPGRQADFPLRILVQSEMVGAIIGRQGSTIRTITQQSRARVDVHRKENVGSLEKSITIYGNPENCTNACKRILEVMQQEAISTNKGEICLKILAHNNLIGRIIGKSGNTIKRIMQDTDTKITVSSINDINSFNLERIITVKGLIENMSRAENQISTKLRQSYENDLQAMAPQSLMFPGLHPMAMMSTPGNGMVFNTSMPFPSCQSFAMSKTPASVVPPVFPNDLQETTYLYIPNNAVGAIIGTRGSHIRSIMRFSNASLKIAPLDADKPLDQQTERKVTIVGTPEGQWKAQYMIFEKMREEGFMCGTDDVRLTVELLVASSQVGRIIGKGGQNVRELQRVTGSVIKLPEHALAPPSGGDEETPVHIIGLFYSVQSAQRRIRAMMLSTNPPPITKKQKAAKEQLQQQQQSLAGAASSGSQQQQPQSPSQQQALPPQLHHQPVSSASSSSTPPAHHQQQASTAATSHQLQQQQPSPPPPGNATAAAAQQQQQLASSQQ

B1: 3x 4-12-13 WT (UUUAU) (ssRNA)
RNA: GUUUUUAUUAUUUUUAUUUUUUCAACUUUUUAUUAUUUUUAUUUUUUCAACUUUUUAUUAUUUUUAUUUUUUCAAC
binding result (IMP KH3): binds
binding result (IMP full length): binds
